Measurements from the supplement of paper PMC9170038.

Tested on: K4 kissing-loop RNA reporter
Experiment: apparent KD of K4 kissing-loop reporter; higher = weaker reporter binding
Settings: Eterna round: R107
Procedure: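 RNA-MaP round R107: designed RNA switches with theophylline, tryptophan, arginine or FMN aptamers are transcribed on-chip within common flanks. They are titrated with a labelled K4 kissing-loop RNA reporter in RNA-MaP buffer (100 mM Tris pH 7.5, 80 mM KCl, 4 mM MgCl2), without ligand or with the indicated ligand. Median apparent KD per design.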

[1] = input ligand: theophylline 20 uM
[2] = input ligand: tryptophan 2.4 mM
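Also: bound reporter read as fluorescence of individual clusters on recovered sequencing chips by microscopy, with normalized cluster intensities fitted with a binding model.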

| Sequence | apparent KD of K4 kissing-loop reporter (input ligand: FMN 200 uM) [µM] | apparent KD of K4 kissing-loop reporter (input ligand: arginine 13.2 mM) [µM] | apparent KD of K4 kissing-loop reporter (input ligand: none) [µM] | apparent KD of K4 kissing-loop reporter [1] [µM] | apparent KD of K4 kissing-loop reporter [2] [µM] |
| --- | --- | --- | --- | --- | --- |
| CUGACGCUGAUACGGUGGCCGAUGGUCGUGCGAGGACCGGUACGGCCGCCACUCGCAUGAGUGAUGUUCAUGUGUCGUCGUCGUC [#06 K4 Tryptophan A Exclusion] | 0.135 | 0.115 | 0.13 | 0.106 | 0.142 |
| CUGCCGUGCCAUGGGCCAGUGAUGUUGGAACGAGGACCGGUACGGCCGCCACUCGCUUAGCGUCAAAGGCGUCCCGAAUAGAAAG [theeternabot_exclusion_KL_Trp_A_14] | 0.374 | 0.23 | 0.34 | 0.317 | 0.374 |
| CUGCCGUUUACAGAUACCAGACUAAUAACGGCAGCACAGAAUGUGAGUGAUGUUCGCAUAGUCCCUUGGCAGCUGUAUAACAGUA [Theo B Ex t3] | 0.219 | 0.199 | 0.227 | 0.287 | 0.191 |
| CUUAAGACAUGAGUGAUGUUCAUGUCCGAAGGAGCGUGCGAAAGCACAGGUAGGUCGCGGACGUGAGUGAUGUUCAUGUAAGCGA [KL-XArg-A11 #analogue] | 0.159 | 0.125 | 0.156 | 0.154 | 0.14 |
| CUUAUUUCUCGCUAUGAUGUUAGUUGAGCCAAGGAUAUUAAUGAAUUAAGAAGGUGGGUUUUUAAGUGAUGUUUUGAGACUGGCA [theeternabot_exclusion_KL_FMN_A_27] | 0.793 | 0.718 | 0.863 | 0.727 | 0.568 |
| CUUUUACAGUCGGCCGCCACUGACAGCACUUCAAAGACAGUAUAAGGGUAGUGAUGUUACUUUAUCAGGACCGGGACUACCUAAC [theeternabot_sameState_KL_Trp_B_3] | 0.215 | 0.121 | 0.205 | 0.279 | 0.358 |
| GAAAUCACGGAUGAUACCAGCCAGAACUCUCACAGUGAUGUUGUGCUUAAAUGAUUAGGAGGCCCUUGGCAGCAUACGCUAAUUU [theeternabot_sameState_KL_Theo_B_36] | 0.324 | 0.267 | 0.313 | 0.305 | 0.226 |
| GAACGAGUGAUGUUCGUUGGCAUGCAUUCCGAGGAUAUGGGAUUAGCCAGAAGGCGGAAUCAGUCUUCGAGUGAUGUUCGAAGAU [Same State FMN A GF 12] | 0.112 | 0.104 | 0.116 | 0.104 | 0.111 |
| GAAUAAUAACAUGAGUGAUGUUCAUGUAAACGAGGACCGGUACGGCCGCCACUCGUUUCUCAUGUAAGCCGUACCAAUAACAAUA [KL-XTryp-A5 #analogue] | 0.146 | 0.142 | 0.151 | 0.147 | 0.237 |
| GAAUAAUAUGUACCAGUGAUGUUGGUACAACGAGGACCGGUACGGCCGCCACUCGGAUACGAGUGGAUACAUCACUGACCAUUCG [(H1)-(H2)-(Trp1)-(Trp2)-(T)'-(H)'-(T)''_Design9] | 0.326 | 0.308 | 0.368 | 0.413 | 0.252 |
| GAAUGGAGUGAUGUUCCAUUAACGAUCCUACGAGGACCGGUACGGCCGCCACUCGUAUUGCAGUGAUGUUGCAACCAGCCGUACU [Exclusion Tryptophan A GF 9] | 0.111 | 0.113 | 0.114 | 0.111 | 0.102 |
| GACUCAUGUAGAAGGAGCGUCAGAAGCUACAGACAUGAGUGAUGUUCAUGUUAGUUGAUUUGACAGGUAGGUCGCUACAGCAGGA [KL-SSArg B15 #analogue] | 0.28 | 0.207 | 0.247 | 0.283 | 0.229 |
| GACUGGUUAACGAGUGAUGUUCGAUGGGAAGGAGCGCGCAGAAGUGCAGGUAGGUCGCCCUAUAACCAGGAAAUGGCUGGAUUAU [3.)] | 0.205 | 0.224 | 0.205 | 0.252 | 0.145 |
| GAUAUAGUGAUGUUAUAUGGGAAGGAGUUACGAGGACCGGUACGGCCGCCACUCGAAACGAGUGAGGAUUUGGGAGAUUGGGUUU [SSTryptA.R] | 0.369 | 0.386 | 0.376 | 0.488 | 0.235 |
| GAUCUGAACGAAAGUUCGGAUCAGUCCGAUACCAGUAUGGAUUCAUACCCUUGGCAGCGGAAAUCUGCUAUGGAGUGAUGUUCCA [Theophylline A K4 14] | 0.532 | 0.328 | 0.379 | 0.418 | 0.391 |
| GAUGAACUAUUCGAUACCAGACUACAUGAGUGAUGUUCAUGUGUGUCAAUGUCUAUGUCAGUCCCUUGGCAGCGAAUAGUUUAUC [KL-XTheo-B27] | 0.146 | 0.108 | 0.125 | 0.141 | 0.125 |
| GAUUCAGUGAUGUUGGAAGGCGAGCGGGAUACCAGCCAAGACUCAGGCCCUUGGCAGCCCACAUAUCCCACGUAGAUAGUAGCUC [Same State - Theophylline A (Freestyle 13)] | 0.23 | 0.104 | 0.147 | 0.134 | 0.142 |

| Sequence | apparent KD of K4 kissing-loop reporter (input ligand: FMN 200 uM) [µM] | apparent KD of K4 kissing-loop reporter (input ligand: arginine 13.2 mM) [µM] | apparent KD of K4 kissing-loop reporter (input ligand: none) [µM] | apparent KD of K4 kissing-loop reporter [1] [µM] | apparent KD of K4 kissing-loop reporter [2] [µM] |
| --- | --- | --- | --- | --- | --- |
| GAUUCAGUGAUGUUGGAAGGCGAGCGGGAUACCAGCCAAGACUCAGGCCCUUGGCAGCCCACAUAUCCCAGGUAGAUAGUAGCUC [Same State - Theophylline A (Freestyle 12)] | 0.168 | 0.111 | 0.142 | 0.146 | 0.132 |
| GCAGACACGCAGUGAUGUUGCGAAACGGAAGGAGCGCGUGAAAACGCAGGUAGGUCGCCGACACAUUAAUUAUAAUUUUGUUUGC [Arginine A K4 15] | 0.279 | 0.241 | 0.27 | 0.274 | 0.2 |
| GCAGGACGAGGAGGAGGAUGAAUUACUGAAGGAGCGCAUAUUGUUGCAGGUAGGUCGCGGUAAACAAGUAUAGUGAUGUUAUAUC [SSArgA.O] | 0.77 | 0.27 | 0.877 | 0.695 | 0.416 |
| GCAGGACGAGGAGGAGGAUGAAUUACUGAAGGAGCGCAUAUUUUUGCAGGUAGGUCGCGGUAAACAAGUAUAGUGAUGUUAUAUC [SSArgA.N] | 0.445 | 0.234 | 0.372 | 0.459 | 0.443 |
| GCAGGAUAGCGCGGUGCAGUGAUGUUGCACCGAGGACCGGUACGGCCGCCACUCGCUUAGAUAUCGUGUGAUGGGUAUGUCUAGA [theeternabot_exclusion_KL_Trp_A_8] | 0.116 | 0.11 | 0.123 | 0.094 | 0.119 |
| GCAGUGAUGUUGCGCGAGUACGGUAGAGUACGAGGACCGGUACGGCCGCCACUCGUACGGAACUGGCUAAUUUAUGGAAUGGUGA [III] | 0.254 | 0.227 | 0.295 | 0.27 | 0.193 |
| GCAGUGAUGUUGCGCGGGUACGGUAGAGUACGAGGACCGGUACGGCCGCCACUCGUACGGAACUGGCUAAUUUAUGGAAUGGUGA [IV] | 0.377 | 0.198 | 0.313 | 0.35 | 0.213 |
| GCAUGAUAGUAAGGAUAUAGAUAAUCCUUAUAUAUAUCGAGUGAUGUUCGAUGUGCCAAGGUACAUCUAGAAGGUACUGUAAGGU [Same State FMN B GF 17] | 0.265 | 0.288 | 0.257 | 0.355 | 0.239 |
| GCCAGUGAUGUUGGCGAACCAACGCAUGCAGAGGAUAUUCGUUCUGGAAGAAGGCUGCAGCGUUAUCAAACGCAGUGAUGUUGCG [Same State FMN A GF 26] | 0.179 | 0.134 | 0.15 | 0.165 | 0.129 |
| GCCGUACGCAUGGAUACCAGACUACCAUUGGAAACAAUGUGUCCGGUAGUGAUGUUACCUGUCCCUUGGCAGCCAUGCGUACGGC | 0.649 | 0.549 | 0.702 | 0.396 | 0.655 |
| GCCGUACGCAUGGAUACCAGUCAAGAUCAGUGAUGUUGAUCUUUUAUAGAGCCUACAUUUGACCCUUGGCAGCCAUGCGUACGGC | 0.378 | 0.32 | 0.33 | 0.465 | 0.247 |
| GCCGUACGCAUGGAUACCAGUCUACAUCGCAGUGAUGUUGCGUAGUUCAGAUAGAUUGCCGACCCUUGGCAGCCAUGCGUACGGC | 0.133 | 0.109 | 0.111 | 0.109 | 0.114 |
| GCCGUACGCAUGGAUACCAGUCUACAUCGCAGUGAUGUUGCGUAGUUCAGAUUAACUGCCGACCCUUGGCAGCCAUGCGUACGGC | 0.134 | 0.111 | 0.127 | 0.118 | 0.12 |
| GCCGUACGCAUGGAUACCAGUCUUUCGCGACUGGACAUGGAGUGAUGUUUCGUGAUGCUAGACCCUUGGCAGCCAUGCGUACGGC | 0.233 | 0.163 | 0.206 | 0.234 | 0.201 |
| GCCGUAGAUCGAAGGAGCGUGUCCAAACCUCAUUCAUGUACACACGAGUGAUGUUCGUGUACACAGGUAGGUCGCGAUCUACGGC [#04 K4 Arginine B Exclusion] | 0.344 | 0.281 | 0.331 | 0.294 | 0.31 |
| GCCGUAGAUGGAAGGAGCGUGCCUUUCAGUUAUAGUGAUGUUAUAACCGAGGAACGGUUGGCACAGGUAGGUCGCCAUCUACGGC | 0.178 | 0.0902 | 0.109 | 0.113 | 0.121 |
